Reference: the nanobody polyreactivity screen of Harvey et al. (2022)

Experiment: yeast display, Sf9 membrane polyspecificity reagent, FACS + sequencing; frameworks hold sequencing errors
Outline: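 Sorting gates, low and high (top ~1%), were placed on anti-HA fluorescence to track expression and on streptavidin fluorescence to track reagent binding. A clone's polyreactivity label is taken from the gate it came out of. The reagent was 10% biotinylated, detergent-solubilized Sf9 membrane, applied for 1 hour at 4 °C to galactose-induced yeast display cells.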

| Sequence | polyreactivity (PSR sort gate) |
| --- | --- |
| QVQLVESGGGLVQAGGSLRLSCAASGSIFQGYAMGWYRQAPGKERELVAAITASGGSTYYADSVKRRFTISRDNAKNTVYLQMNSLKPEDTAVYYCATDSYWRQDLYRYEYWGQGTQVTVSS | high polyreactivity |
| QVQLVESGGGLVQAGGSLPLRCAASGITFYGYTMGWYRQAPGKERELVAAITSVGSTYYADSVKGRFTISRDNAKNTVYLQMNSLKPEDTAVYYCNARPKFRTYNYWGQGTQVTVSS | high polyreactivity |
| QVHLVDSGGGLVQAGGSLRLSSAASGRIFGHYALGGYRQAPGKPRELVAAIRYSAGRTYYAGSVKGRFTISRDNAKNSVNLQMNSLKPEDTSVYYCAKTCRYLTGGGDYWGQGTQVTVSS | high polyreactivity |
| QVQLVESGGGLVQAGGSLRLICAASGSTFYPNAIGWYRQAPGKERELVAAISYTGGRTYYADSVKGRFTISRDNAKNTVYLQMNSLKPEDTAVYYCAVLVVGSTTQDEPYFCGVEHDYWGQGTQVTVSS | low polyreactivity |
| QVQLVESGVGLVQAGGSLRLSCAASGITSRYYAMGCYRQAPGKERELVAAISGNGGRTYYADSVKGRFTISRDIAKNSVYFQMNSMKPEDTAVYYCAARAHKTRHNYWGQGTQVTVSS | high polyreactivity |
| QVQLVESGGGLVQAGGSLRLSCAASGSTFQRYAMGWYRQAPGKERELVASISTSGGSTYYAHSVKGRFTISRDNAKNTVYLQMNSLKPEDTAVYYCAAQGWSRQVREGWIKRDYWGQGTQVTVSS | high polyreactivity |
| QVQLVESGGGLVQAGGSLRLSCAASGRTFHGYAMGWSRQAPGKERELVARINWSDGRTYYADSVKGRFTISRDNAKNTVYLQMNSLKPADTGVYYCAARLYSSASGVRWIKFDYWGQGTQVTVSS | low polyreactivity |
| QVQIVESGGGLVQAGGSLRLSCAASGSIFPRMAMGWYIQAPGKERELVAAITTGGITNYADSVKGRFTISRDHAKNTVYLQMNSLNPDDTAVYYCAATSWRYQQSTRYKGRRYYSWGQGTQVTVSS | high polyreactivity |
| QVQLVESGGGLFQAGRSLRIRCAASGRILNVYHMGWYRQAPGKERELVAAISSGANTNYAESVKGRFTISRDNAKNTVDLQMNSLKPEDTEVYFCNTEQFYDYDYTFDYWGQGTQVTVSS | low polyreactivity |
| QVQLVESGGGLVQAGGSLRLSCAASGYILQKYAMGWYRQAPGKERELVATISGGGGSTYYADSVKGRFTISRDNAKNTVYLLMNSLKPEDTAVYYCAKEYPWLPRSYEYWGQGTQVSVSS | low polyreactivity |
| QVQLVESVGGLVQAGGSLRLSCADSGSIFAANAIGWFRQAPGKERELVAAISRSGNTYYADSVKGRFTISRDNAKNTVYLQMNSLKPEDTAVYYCAARRYAYGRTYGYWGQGTQVTVSS | high polyreactivity |
| QVQLVESGGGLVQAGGSLRLSCAASGYAMGWYRQAPGKERELVAAITRRGGSTYYADSVKGRFTISRDNAKNTVYLQMNSLKPEDTAVYYCAADNPSYNLWYGYWGQGTQVTVSS | low polyreactivity |
| QVQLVESGGGLVQAGGSLRLSCAASGFIFGYYAMGWYRQAPGKEREFVAAISARSGRTYYADSVKGRFTISRDNAKNTVYLQMNSLKPEDTAVYYCNTAYAYSGRYDYWGQGTQVTVSS | high polyreactivity |
| QVQLVESGGGLVQAGGSLRLSCAASGRTLSRYTMGWYRQAPGKERELVAAISTSGSTYYADSVKGRFTISRDNAKNTVYLQMNSLKPEDTAVYYCNAVRRYLQYATGYDYWGQGTQVTVSS | high polyreactivity |
| QLQLVESGGGLVQAGGSLRLSCAASGSIFLIYDMGWYRQAPGKEMELVAAISNSVGSTYADSVKGRFTISRDNAKNTVYLQMNSLKPEDTAVYYCNADSGPIDGRGGYWGQGTQVTVSS | low polyreactivity |
| QLHLVESGGGLVQAGGSLRLSCAASGYIFNYNAMGWSRQAPGTQREFVAAISQGGGSTYYADSVKGRFTISRDNSKYTVYLQMNRLKPEDTAVYYCAADYRSGYREMDYWGQGTQVTVSS | low polyreactivity |
| QVQLVESGGGSVQAGGSLRLSCSASGIIFWYYTMGRNRQAPGKERELVAAISCSSGITYYADSVKGRFTISRDNSKNTVYLQMNSLKPEDTAVYYCAARKFFWRSNYDYWGQGTQVTVSS | low polyreactivity |
| QVQLVESGGGLVQAGGSLRFSCAASGLTFNHNAMGWYRQAPGKERELVAAISRRGGSTYYADSVKGRFTISRDNAKNTVYVQMNSLKPEDTAVYYCNKDFPTLYSRGRYIYWGQGTQVTVSS | high polyreactivity |
| QVQHVESGGGLVQAGGSLRLSCAASGIIFYHNAMGWYRQAPVKERELVASITEIGGSTYYADSVKGLFTISRDNAKSTVYLQMNRLKPEDTAVYYCAAGTLTSFSRYDYWGQGTQVTVSS | low polyreactivity |
| QVQLVESGGCLVQAGGSLRLSCAASGRIFSGYVMGWYRQAPGKERELVAGITYRDGSTYYADSVKGRFTISRDKEKNTVYLQMNSLKPEDTAVYYCNADDYNDIPYDYWGQGTHVTVSS | low polyreactivity |
| QVQLVDSGGGLVQAGGSLRLSCAASGFTFVYYFMGWYRQAPGKERELVAAITRSCRTYYADSVKGRFTISRDNAKNTVYLQMNSLKPEDTAVYYCARGYGYADHAMGYWGQGTQVTVSS | high polyreactivity |
| QDQHVESGVGLVQEGGSLPLSCASSAFIIVKYAMGWYRKAPGKERELVAAITSGGSTSYADSVKGRFTISRDNAKNTVYLQMNRLKPEDTAVYYCAASTTAYAYVNYGYWGQGTQVTVSS | low polyreactivity |

| Sequence | polyreactivity (PSR sort gate) |
| --- | --- |
| QVQLVESGGGLVQAGGSLRLSCAASGITFDRYVMGWYRQAPGKERELVAAISWTGDSTYYADSVKGRFTISRDNAKNTVYLQMNSQKPEDTAVYYCAAEDLWYGYNYWGQGTQVTVSS | high polyreactivity |
| QVQLVESGGGLVQAGGSLRLSCAASGRIFYNYAMGWYRQAPGKERELVAAITGGASTYADSVKGRFTISRDNAKNTVYLQMNSLKPEDTAVYYCAVDYYTYSLASGRTRMDYWGQGTQVTVSS | high polyreactivity |
| QVQLVESGGGFFQAGGRLRLSCAASGRIFGINAMGWYRQAPGKERELVAAISRSGGRTYYADSVKGRFTISRDNGKNTVYFQMNSLKPEDTAVYDCAQGDAHSYSRYDYWGPGTQVTVSS | high polyreactivity |
| QVQLVESGGGLVQAGGSLRLSCAASGSTFGGNGMGWYRQAPGKKGSWVAAISWSGGSTYYADSVKGRFTISRDNAKNTVYLQMNSLKPEDTAVYYCAARTVYRGRAYDYWGQGTQVTVSS | high polyreactivity |
| QVQLVESGGGLVQAGGSHRLSCAASGFTFTHYPMGWYRQAPGKERELVAAISTSGGSTYYADSVKGRFTISRDNAKNSVYLQMNSLKPEDTAVYYCAARRDGWVQWGYYYWGQGTQVTVSS | low polyreactivity |
| QVQLVESGGGLVQAGGSLRLSCAASGFTFYANAMGWYRQAPGKERELVAAISKSGGRTYYADSVKGRFTISRDNAKNTVYLQMNSLKPEDTAVYYCAAVGSVNYEADFDYWGQGTQVTVSS | high polyreactivity |
| KVQLVESGGGLVQAGGSLRLSCAASGSIFTYYAMGWDRQAPGKERELVAAISIGGRTDYADSVKGRFTISRDNAKNTVSLQMNSLKPEDTAVYYCVAKGHLDSGGYEYYYWRQGTQVTVSS | low polyreactivity |
| QVQLVESGGGLVQAGGSLRLICAASGSTFWSNAMGWYRQAPGKERELVATINSGDGTNYADSVKGRFTISRDNAKNTVYLQMNSLKPEDTAVYYCAAEKYYPWGWYTYDYWGQGTQVTVSS | high polyreactivity |
| QVQLVESGGGLVQAGRSNRLSCAASGSLFPDYTMGWYRQAPGQERELVAGSTWNRGGTYYADSVKGRFTISRDNAKNTVYLQMNILKPEDTAVYYCAAEWSGSRSSGAWGPYNYWGQGSQVTVSS | low polyreactivity |
| QVQLVESGGGLVQAGGSLRLSCAASGFTFYNYAMGWYRQAPGKERELVAAITSRGGSTYYADSVKGRFTISRDYAKNTVYLQMNSLKPEDTAVYYCNAVAKLYYWRYDYWGQGTQVTVSS | low polyreactivity |
| QVQLVESGGGLVQAGGSLRLSCAASGRIFRGYAMGWYRQAPGKERELVATITARGGNTYYADSVKGRFTISRDNAKNTVYLQMNSLKPEETAVYYCAATFYRRYVDLGYWGQGTQVTVSS | high polyreactivity |
| QVQLVESGGGLVQAGGSLRLSCAASGIIFKSYAMGWYRQAPGKERELVAAITKRGGSTYYADSVKGRFTISRDNAKNTVYLQMNSLKPEDTAVYYCAADDGVGNTDDYWGQGTQVTVSS | high polyreactivity |
| QVQLVESGGGLVQAGGSLRLSCAASGSIFTYNAMGWYRQAPGKERELVAAITSSSGSSTYADSVKGRFTISRDNAKNTVYLQMNSLKPEDTAVYYCAAPILSFPSPYVQYDYWGQGTQVTVSS | low polyreactivity |
| QVQLVESGGGLVQAGGSLRLSCAASGIIFSGYAMGWYRQAPGKERELVAAITGSGDITYYADSVKGRFTISRDNAKNTVYLQMNSLKPEDTAVYYCADVASSQYRAEEYNYWGQGTQVTVSS | low polyreactivity |
| QVQLVESGGGLVQAGGSLRLSCAASGRIYDGYAMGWYRQAPGKERELVATISSGGSTYYADSVKGRFTISRDNAKNNVYLQMNSLKPEDTAVYYCAADSWVQFDYWGQGTQVTVSS | low polyreactivity |
| QVQLEESGGGLVQAGGIRRLSCAASGRIFPYYAMGWYRLAPGKERELVAAISLSGGSTYYADSVKGRFTISRDTAKMSGYLQMTSLKPEDTAVYYGNAVASTSGYYWYPGLGYDYCGQGTQVTVSS | low polyreactivity |
| QVQLVESGGGLVQAGGSLRLSCAASGSTFSYAMGWYRQAPGKERELVAAITIGGRTSYADSVKGRFTISRDNAKNTVYLQMNSLNPEDTAVYYCAADDLPGMDYWGQGSQVTVSS | low polyreactivity |
| QVQLVESGGGLVQAGGSLRLSCAASGITFSKYAMGWYRQAPGKERELVAAITTSGVSTYYADSVKGRFTISRDNAKNTVYLQMNSLKPEDTAVYYCATELGWGGFYKYGHASQFDYWGQGTQVTVSS | low polyreactivity |
| QVQLVESGGGLVQAGGSLRLSCAASGRIFRPNTMGWYRQAPGKERELVAAISRSGGSTYYADSVKGRFTISRDNAKNTVYLQMNSLKPEDTAVDYCAKRYGGIVGVGANKYEYWGQGTQVTVAS | high polyreactivity |
| QVQLVESGGGLVQAGGSLRLSCAASGFIFDYYAMGWYRHAPGKERELVAAITSRGGSTYYADSVKGRFTISRDNAKNTVYLQMNSLKPEDTAVYYCAARRRSAEYNYWGQGTQVTVSS | high polyreactivity |
| QVQLVESGGGLVLAGGSLRLSCAASGFTFPHYAMGWYRQAPGKERELVAVISWSGSSTYYADSVKGRFTISRDNAKNTVYLQMNSLKPEDTAVYYCNTRKLYQVDYDYWGQGTQVTVSS | high polyreactivity |
